According to patent publication US20210206856A1 (PANDION OPERATIONS, published 2021):
Read-outs that look alike come from different tables or passages of the source.

T1: human MAdCAM expressed on cells (human, UniProt Q13477 19-382)
T1 construct: whole, on cells; also called MADCAM1
T1 sequence (looked up): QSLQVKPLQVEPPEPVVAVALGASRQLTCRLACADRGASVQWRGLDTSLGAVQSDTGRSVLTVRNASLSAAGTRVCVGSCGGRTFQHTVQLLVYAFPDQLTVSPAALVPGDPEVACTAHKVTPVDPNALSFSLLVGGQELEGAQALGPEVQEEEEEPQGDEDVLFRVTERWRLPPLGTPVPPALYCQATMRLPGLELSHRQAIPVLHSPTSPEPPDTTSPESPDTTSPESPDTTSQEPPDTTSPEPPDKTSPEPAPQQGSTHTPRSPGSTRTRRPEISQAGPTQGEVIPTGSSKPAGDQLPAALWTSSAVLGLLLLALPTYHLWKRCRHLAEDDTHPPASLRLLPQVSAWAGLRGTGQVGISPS

T2: mouse MAdCAM expressed on cells (mouse, UniProt Q61826 22-405)
T2 construct: whole, on cells
T2 sequence (looked up): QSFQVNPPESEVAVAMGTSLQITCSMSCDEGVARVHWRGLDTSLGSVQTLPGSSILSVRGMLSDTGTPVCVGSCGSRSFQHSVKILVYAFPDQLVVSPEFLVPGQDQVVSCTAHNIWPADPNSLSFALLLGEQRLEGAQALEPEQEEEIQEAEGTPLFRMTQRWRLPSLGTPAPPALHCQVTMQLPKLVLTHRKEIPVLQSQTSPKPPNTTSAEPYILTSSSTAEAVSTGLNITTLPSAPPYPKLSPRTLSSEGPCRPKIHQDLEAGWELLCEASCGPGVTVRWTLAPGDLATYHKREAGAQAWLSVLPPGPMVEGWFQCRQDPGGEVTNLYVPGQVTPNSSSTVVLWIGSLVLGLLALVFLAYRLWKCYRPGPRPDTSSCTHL

T3: recombinant mouse MAdCAM-1 (mouse, UniProt Q61826 22-365, limits assumed)
T3 construct: also called mMAdCAM-1; mouse MAdCAM-Fc
T3 sequence (looked up): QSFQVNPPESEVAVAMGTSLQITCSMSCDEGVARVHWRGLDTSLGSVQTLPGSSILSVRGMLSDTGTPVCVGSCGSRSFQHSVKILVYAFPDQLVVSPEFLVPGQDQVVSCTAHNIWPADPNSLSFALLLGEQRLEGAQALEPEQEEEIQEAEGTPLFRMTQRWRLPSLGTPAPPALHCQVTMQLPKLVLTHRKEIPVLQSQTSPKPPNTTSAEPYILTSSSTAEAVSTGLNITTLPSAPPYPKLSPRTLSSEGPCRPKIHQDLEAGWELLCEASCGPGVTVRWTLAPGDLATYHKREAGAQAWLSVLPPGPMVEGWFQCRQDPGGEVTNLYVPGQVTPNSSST

B1: MAdCAM Antibody Table 1 Clone 2 (scFv)
scFv: QVQLVQSGAEVKKPGASVKVSCKASGYPFIGYYLHWVRQAPGQGLEWMGIINPSGGSTSYAQKFQGRVTMTRDTSTSTVYMELSSLRSEDTAVYYCAREGRLSYGMDAWGQGTLVTVSSGGGGSGGGGSGGGGSGGGGSDIQMTQSPSSLSASVGDRVTITCRASQSISSYLAWYQQKPGKAPKLLIYGASTLESGVPSRFSGSGSGTDFTLTISSLQPEDFATYYCQQTWGPPFTFGQGTKLEIK
B2: MAdCAM Antibody Table 1 Clone 3 (scFv)
scFv: QVQLVQSGAEVKKPGASVKVSCKASGYPFIGQYLHWVRQAPGQGLEWMGIINPSGGSTSYAQKFQGRVTMTRDTSTSTVYMELSSLRSEDTAVYYCAREGRLSYGMDAWGQGTLVTVSSGGGGSGGGGSGGGGSGGGGSDIQMTQSPSSLSASVGDRVTITCRASQSISSYLAWYQQKPGKAPKLLIYGASTLESGVPSRFSGSGSGTDFTLTISSLQPEDFATYYCQQTWGPPFTFGQGTKLEIK
B3: MAdCAM Antibody Table 1 Clone 4 (scFv)
scFv: QVQLVQSGAEVKKPGASVKVSCKASGGTFSSYAISWVRQAPGQGLEWMGSINPSGDTTSYAQKFQGRVTMTRDTSTSTVYMELSSLRSEDTAVYYCAKDKAQWLVGYFDYWGQGTLVTVSSGGGGSGGGGSGGGGSGGGGSDIQMTQSPSSLSASVGDRVTITCQASQDISNSLNWYQQKPGKAPKLLIYAASSLQSGVPSRFSGSGSGTDFTLTISSLQPEDFATYYCQQSYSSVITFGQGTKVEIK
B4: MAdCAM Antibody Table 1 Clone 65 (scFv)
scFv: QVQLVQSGAEVKKPGASVKVSCKASGYTFTRHWIHWVRQAPGQGLEWMGWINVKTGGAGYAQKFQGRVTMTRDTSTSTVYMELSSLRSEDTAVYYCARESSGWYGTDVWGQGTTVTVSSGGGGSGGGGSGGGGSGGGGSDIQMTQSPSSLSASVGDRATITCRASQSISNYLAWYQQKPGKAPKLLIYAASSLQSGVPSRFSGSGSGTDFTLTISSLQPEDFATYYCQQSNSFPLTFGGGTKVEIK
B5: MAdCAM Antibody Table 1 Clone 64 (scFv)
scFv: EVQLLESGGGLVKPGGSLRLSCAASGFAFSSHWMHWVRQAPGKGLEWVAGTSGSGESRDYADFVKGRFTISRDDSKNTLYLQMNSLKTEDTAVYYCARETYYYYYMDVWGKGTTVTVSSGGGGSGGGGSGGGGSGGGGSDIQMTQSPSSLSASVGDRVTITCRASQGISNYLAWYQQKPGKAPKLLIYDAANLEGGVPSRFSGSGSGTDFTLTISSLQPEDFATYYCQQSDIFPPTFGQGTKVEIK
B6: MAdCAM Antibody Table 2 Clone 17 (antibody, human IgG1, V domains shown)
VH: QVQLVQSGAEVKKPGSSVKVSCKASGYTFTDYHIHWVRQAPGQGLEWMGGIVPRSGSTTYAQKFQGRVTITADESTSTAYMELSSLRSEDTAVYYCAKDESSGWYYFDYWGQGTLVTVSS
VL: DIVMTQSPLSLPVTPGEPASISCRSSQSLLHSNGYNYLDWYLQKPGQSPQLLIYSAYNRASGVPDRFSGSGSGTDFTLKISRVEAEDVGVYYCMQALQTPLTFGQGTKVEIK
B7: MAdCAM Antibody Table 2 Clone 28 (antibody, human IgG1, V domains shown)
VH: EVQLLESGGGLVQPGGSLRLSCAASGFTFSSYAMSWVRQAPGKGLEWVSYISSSSTYTNYADSVKGRFTISRDNSKNTLYLQMNSLRAEDTAVYYCARANSSSWYDWYFDLWGQGTLVTVSS
VL: not shown
B8: MAdCAM Antibody Table 2 Clone 6 (antibody, human IgG1, V domains shown)
VH: EVQLLESGGGLVQPGGSLRLSCAASGFTFNNYAFHWVRQAPGKGLEWVSRINSYGTSTTYADSVKGRFTISRDNSKNTLYLQMNSLRAEDTAVYYCAREGPVAGYWYFDLWGQGTLVTVSS
VL: DIQMTQSPSSLSASVGDRVTITCRASQIIGTNLAWYQQKPGKAPKLLIYGASSLQSGVPSRFSGSGSGTDFTLTISSLQPEDFATYYCQQSYRLPFTFGQGTKVEIK
B9: MAdCAM Antibody Table 2 Clone 14 (antibody, human IgG1, V domains shown)
VH: QVQLVQSGAEVKKPGSSVKVSCKASGYTFTNYYMHWVRQAPGQGLEWMGGIIPIVDGVKYAQKFQGRVTITADESTSTAYMELSSLRSEDTAVYYCAKGQFTGNYYYGMDYWGQGTLVTVSS
VL: DIQMTQSPSSLSASVGDRVTITCQANQDISNYLNWYQQKPGKAPKLLIYRASKLEAGVPSRFSGSGSGTDFTLTISSLQPEDFATYYCQQSSEIPYSFGQGTKVEIK
B10: MAdCAM Antibody Table 1 Clone 5 (scFv)
scFv: EVQLLESGGGLVQPGGSLRLSCAASGFTFSSYWMHWVRQAPGKGLEWVSSISPGGSNIDYADSVKGRFTISRDNSKNTLYLQMNSLRAEDTAVYYCAREVQLSHYDYWGQGTLVTVSSGGGGSGGGGSGGGGSGGGGSDIQMTQSPSSLSASVGDRVTITCRASQGISNSLAWYQQKPGKAPKLLIYGASSLQSGVPSRFSGSGSGTDFTLTISSLQPEDFATYYCQQANSFPFTFGQGTKVEIK
B11: MAdCAM Antibody Table 1 Clone 7 (scFv)
scFv: QVQLVQSGAEVKKPGASVKVSCKASGYTFTGYHIHWVRQAPGQGLEWMGIINPSGGSTIYAQKFQGRVTMTRDTSTSTVYMELSSLRSEDTAVYYCAKDWSSWYLGPFDYWGQGTLVTVSSGGGGSGGGGSGGGGSGGGGSDIQMTQSPSSLSASVGDRVTITCRASQNISSSLNWYQQKPGKAPKLLIYAASSLQSGVPSRFSGSGSGTDFTLTISSLQPEDFATYYCQQSYTTPYTFGQGTKVEIK
B12: MAdCAM Antibody Table 1 Clone 11 (scFv)
scFv: QVQLVQSGAEVKKPGASVKVSCKASGYTFTTYYMHWVRQAPGQGLEWMGGFDPEDGETIYAQKFQGRVTMTRDTSTSTVYMELSSLRSEDTAVYYCARHAVAGAVGAGYYYYGMDVWGQGTMVTVSSGGGGSGGGGSGGGGSGGGGSDIQMTQSPSSLSASVGDRVTITCRASESISNWLAWYQQKPGKAPKLLIYAASTLQSGVPSRFSGSGSGTDFTLTISSLQPEDFATYYCQQSYSVPFTFGPGTKVDIK
B13: MAdCAM Antibody Table 1 Clone 66 (scFv)
scFv: EVQLLESGGGLVQPGGSLRLSCAASGFTFSSYWMHWVRQAPGKGLEWVAAISYDGKYKDYEDSVKGRFTISRDNSKNTLYLQMNSLRAEDTAVYYCARENKQWLASFDYWGQGTLVTVSSGGGGSGGGGSGGGGSGGGGSDIQMTQSPSSLSASVGDRVTITCQASQDISNFVNWYQQKPGKAPKLLIYAANLRSGVPSRFSGSGSGTDFTLTISSLQPEDFATYYCQQANSFPVTFGPGTKVDIK
B14: MAdCAM Antibody Table 1 Clone 63 (scFv)
scFv: EVQLLESGGGLVKPGGSLRLSCAASGFTFDDYAMHWVRQAPGKGLEWVASITSSSAFIDYAASVKGRFTISRDDSKNTLYLQMNSLKTEDTAVYYCARERVDWNSYFDLWGRGTLVTVSSGGGGSGGGGSGGGGSGGGGSEIVMTQSPATLSVSPGERATLSCRASQGISNSYLAWYQQKPGQAPRLLIYGASTRATGIPARFSGSGSGTEFTLTISSLQSEDFAVYYCQQYYTYPPTFGPGTKVDIK

What was measured:
[1] = molecular target: T1, human MAdCAM expressed on cells; assay: cell binding
[2] = molecular target: T2, mouse MAdCAM expressed on cells; assay: cell binding
[3] = molecular target: T3, recombinant mouse MAdCAM-1; assay: Octet
[4] = molecular target: T1, human MAdCAM expressed on cells; assay: cell binding; remark: listed apart in the source
[5] = molecular target: T2, mouse MAdCAM expressed on cells; assay: cell binding; remark: listed apart in the source

Binder | binding result [1] | binding result [2] | binding result [3] | binding result [4] | binding result [5]
B1 | binds | binds |  |  | 
B2 | binds | binds |  |  | 
B3 | binds | binds |  |  | 
B4 | binds | binds |  |  | 
B5 | binds | binds |  |  | 
B6 |  |  | no binding | binds | no binding
B7 |  |  | no binding |  | no binding
B8 |  |  | no binding | binds | no binding
B9 |  |  | no binding |  | no binding
B10 | binds | binds |  |  | 
B11 | binds | binds |  |  | 
B12 | binds | no binding |  |  | 
B13 | binds | binds |  |  | 
B14 | binds | binds |  |  | 
